Source: US20070071681A1, “Apparatus and method for computer modeling type 1 diabetes” (Entelos, Inc., priority 2005, published 2007)

How the values were obtained:
NOD mouse = conditions: cited from earlier work
[1] = tested on: average virtual NOD mouse; test: Simulation of therapy protocols in the average virtual NOD mouse (computer model of type 1 diabetes); conditions: IL-10; Pennline 1994 protocol; at 28 wks; expectation from published data
Description: One application of a NOD mouse type 1 diabetes model is to improve understanding of type 1 diabetes pathogenesis in the NOD mouse. Model development therefore focused on islet β cell autoimmunity and tolerance, as well as related mechanisms and interventions. To provide for general immunologic function and not only progression to diabetes, the development effort included representation of several NOD mouse phenotypes. The first phenotype was an average diabetic virtual mouse. […] Typically, a simulation of the average virtual mouse concludes shortly after diabetes diagnosis, which is consistent with post-diabetic sacrifice of NOD mice in the laboratory. […] Additional virtual mice, each with different clinical behaviors and/or underlying pathophysiologies, have also been generated. Similarly, development of modals of type 1 diabetes in other mammals, such as humans, can include the development of various virtual patients representing normal animals or animals having varying degrees of severity or progression of type 1 diabetes.
Because diabetes is typically assessed by measuring blood or urinary glucose, blood glucose levels were represented in the model's clinical read-out. Hyperglycemia (a diabetes indicator) was defined as a glucose level in excess of a commonly used standard (e.g., 200, 250, 300, 350 mg/dl). […]

B1: IL-10: exogenous recombinant human IL-10 (protein, UniProt P22301 19-178, looked up)
Interleukin-10: SPGQGTQSENSCTHFPGNLPNMLRDLRDAFSRVKTFFQMKDQLDNLLLKESLLEDFKGYLGCQALSEMIQFYLEEVMPQAENQDPDIKAHVNSLGENLKTLRLRLRRCHRFLPCENKSKAVEQVKNAFNKLQEKGIYKAMSEFDIFINYIEAYMTMKIRN
- Incidence (NOD mouse; IL-10, Pennline 1994, Rx 9-24 wks, 1 μg recombinant human IL-10 daily, 15 wks, at 28 wks, vs 85% control): 25% vs. 85% control at 28 wks
- Insulitis (NOD mouse; IL-10, Pennline 1994): Reduced severity of insulitis
- Disease progression (NOD mouse; IL-10 delivered in various ways): protect against disease progression
- Expected virtual mouse outcome [1]: No diabetes at 28 wks
